Laboratory results: publication PMC3290569, “Macro-to-Micro Structural Proteomics: Native Source Proteins for High-Throughput Crystallization” (PLoS ONE, 2012)

Columns and labels:
[1] = biological target: the molecule itself; assay: crystal structure; native source E. coli proteins already in the PDB, identified and solved by brute-force molecular replacement, not refined except to confirm the solution; oligomer seen in the crystal
[2] = biological target: the molecule itself; assay: crystal structure; novel structures of native source E. coli proteins, solved by molecular replacement and refined; oligomer seen in the crystal

B1: phosphoserine aminotransferase (enzyme, Escherichia coli, UniProt P23721 1-362, looked up)
chain: MAQIFNFSSGPAMLPAEVLKQAQQELRDWNGLGTSVMEVSHRGKEFIQVAEEAEKDFRDLLNVPSNYKVLFCHGGGRGQFAAVPLNILGDKTTADYVDAGYWAASAIKEAKKYCTPNVFDAKVTVDGLRAVKPMREWQLSDNAAYMHYCPNETIDGIAIDETPDFGADVVVAADFSSTILSRPIDVSRYGVIYAGAQKNIGPAGLTIVIVREDLLGKANIACPSILDYSILNDNGSMFNTPPTFAWYLSGLVFKWLKANGGVAEMDKINQQKAELLYGVIDNSDFYRNDVAKANRSRMNVPFQLADSALDKLFLEESFAAGLHALKGHRVVGGMRASIYNAMPLEGVKALTDFMVEFERRHG
notes: phosphoserine aminotransferase, Escherichia coli, native source protein; identified with PDB 1BJN; the PDB entry is the previously deposited structure that identified the protein; the crystallised protein is the native one; source: purified from E. coli DH5α cells (whole-proteome fractionation)
binding result [1]: binds

B2: Ariginosuccinate lyase (enzyme, Escherichia coli, UniProt P11447 1-457, looked up)
chain: MALWGGRFTQAADQRFKQFNDSLRFDYRLAEQDIVGSVAWSKALVTVGVLTAEEQAQLEEALNVLLEDVRARPQQILESDAEDIHSWVEGKLIDKVGQLGKKLHTGRSRNDQVATDLKLWCKDTVSELLTANRQLQSALVETAQNNQDAVMPGYTHLQRAQPVTFAHWCLAYVEMLARDESRLQDALKRLDVSPLGCGALAGTAYEIDREQLAGWLGFASATRNSLDSVSDRDHVLELLSAAAIGMVHLSRFAEDLIFFNTGEAGFVELSDRVTSGSSLMPQKKNPDALELIRGKCGRVQGALTGMMMTLKGLPLAYNKDMQEDKEGLFDALDTWLDCLHMAALVLDGIQVKRPRCQEAAQQGYANATELADYLVAKGVPFREAHHIVGEAVVEAIRQGKPLEDLPLSELQKFSQVIDEDVYPILSLQSCLDKRAAKGGVSPQQVAQAIAFAQARLG
notes: argininosuccinate lyase (printed: Ariginosuccinate lyase), Escherichia coli, native source protein; identified with PDB 1TJ7; the PDB entry is the previously deposited structure that identified the protein; the crystallised protein is the native one; also called Arginosuccinate lyase; source: purified from E. coli DH5α cells (whole-proteome fractionation)
binding result [1]: binds

B3: Methylglyoxal reductase (YghZ) (enzyme, Escherichia coli, UniProt Q46851 1-346, looked up)
chain: MVWLANPERYGQMQYRYCGKSGLRLPALSLGLWHNFGHVNALESQRAILRKAFDLGITHFDLANNYGPPPGSAEENFGRLLREDFAAYRDELIISTKAGYDMWPGPYGSGGSRKYLLASLDQSLKRMGLEYVDIFYSHRVDENTPMEETASALAHAVQSGKALYVGISSYSPERTQKMVELLREWKIPLLIHQPSYNLLNRWVDKSGLLDTLQNNGVGCIAFTPLAQGLLTGKYLNGIPQDSRMHREGNKVRGLTPKMLTEANLNSLRLLNEMAQQRGQSMAQMALSWLLKDDRVTSVLIGASRAEQLEENVQALNNLTFSTKELAQIDQHIADGELNLWQASSDK
notes: methylglyoxal reductase YghZ, Escherichia coli, native source protein; identified from the electron density after molecular replacement; source: purified from E. coli DH5α cells (heparin sepharose, phenyl sepharose, MonoQ)
stoichiometry N [2]: 4

B4: 5-keto-4-deoxyuronate isomerase (enzyme, Escherichia coli, UniProt Q46938 1-278, looked up)
chain: MDVRQSIHSAHAKTLDTQGLRNEFLVEKVFVADEYTMVYSHIDRIIVGGIMPITKTVSVGGEVGKQLGVSYFLERRELGVINIGGAGTITVDGQCYEIGHRDALYVGKGAKEVVFASIDTGTPAKFYYNCAPAHTTYPTKKVTPDEVSPVTLGDNLTSNRRTINKYFVPDVLETCQLSMGLTELAPGNLWNTMPCHTHERRMEVYFYFNMDDDACVFHMMGQPQETRHIVMHNEQAVISPSWSIHSGVGTKAYTFIWGMVGENQVFDDMDHVAVKDLR
notes: 5-keto-4-deoxyuronate isomerase, Escherichia coli, native source protein; identified with PDB 1XRU; the PDB entry is the previously deposited structure that identified the protein; the crystallised protein is the native one; source: purified from E. coli DH5α cells (whole-proteome fractionation)
binding result [1]: binds

B5: Adenylosuccinate synthetase (enzyme, Escherichia coli, UniProt P0A7D4 1-432, looked up)
chain: MGNNVVVLGTQWGDEGKGKIVDLLTERAKYVVRYQGGHNAGHTLVINGEKTVLHLIPSGILRENVTSIIGNGVVLSPAALMKEMKELEDRGIPVRERLLLSEACPLILDYHVALDNAREKARGAKAIGTTGRGIGPAYEDKVARRGLRVGDLFDKETFAEKLKEVMEYHNFQLVNYYKAEAVDYQKVLDDTMAVADILTSMVVDVSDLLDQARQRGDFVMFEGAQGTLLDIDHGTYPYVTSSNTTAGGVATGSGLGPRYVDYVLGILKAYSTRVGAGPFPTELFDETGEFLCKQGNEFGATTGRRRRTGWLDTVAVRRAVQLNSLSGFCLTKLDVLDGLKEVKLCVAYRMPDGREVTTTPLAADDWKGVEPIYETMPGWSESTFGVKDRSGLPQAALNYIKRIEELTGVPIDIISTGPDRTETMILRDPFDA
notes: adenylosuccinate synthetase, Escherichia coli, native source protein; identified with PDB 1CG1; the PDB entry is the previously deposited structure that identified the protein; the crystallised protein is the native one; source: purified from E. coli DH5α cells (whole-proteome fractionation)
binding result [1]: binds

B6: ycaC gene product (natural protein, Escherichia coli, UniProt P21367 1-208, looked up)
chain: MTKPYVRLDKNDAAVLLVDHQAGLLSLVRDIEPDKFKNNVLALGDLAKYFNLPTILTTSFETGPNGPLVPELKAQFPDTPYIARPGNINAWDNEDFVKAVKATGKKQLIIAGVVTEVCVAFPALSAIEEGFDVFVVTDASGTFNEITRHSAWDRLSQAGAQLMTWFGVACELHRDWRNDIEGLATLFSNHIPDYRNLMTSYDTLTKQK
notes: ycaC gene product, Escherichia coli, native source protein; identified with PDB 1YAC; the PDB entry is the previously deposited structure that identified the protein; the crystallised protein is the native one; source: purified from E. coli DH5α cells (whole-proteome fractionation)
binding result [1]: binds

B7: Inorganic pyrophosphatase (enzyme, Escherichia coli, UniProt P0A7A9 1-176, looked up)
chain: MSLLNVPAGKDLPEDIYVVIEIPANADPIKYEIDKESGALFVDRFMSTAMFYPCNYGYINHTLSLDGDPVDVLVPTPYPLQPGSVIRCRPVGVLKMTDEAGEDAKLVAVPHSKLSKEYDHIKDVNDLPELLKAQIAHFFEHYKDLEKGKWVKVEGWENAEAAKAEIVASFERAKNK
notes: inorganic pyrophosphatase, Escherichia coli, native source protein; identified with PDB 1IPW; the PDB entry is the previously deposited structure that identified the protein; the crystallised protein is the native one; source: purified from E. coli DH5α cells (whole-proteome fractionation)
binding result [1]: binds

B8: Glucose-6-phosphate isomerase (pGI) (enzyme)
chain: not shown
notes: glucose-6-phosphate isomerase, Escherichia coli, native source protein; also called phosphoglucose isomerase; source: purified from E. coli DH5α cells (CaptoQ, phenyl sepharose, MonoQ)
stoichiometry N [2]: 2
